In experiment [1] the target is T1, human Protein S (UniProt P07225 42-676).
T1 chain: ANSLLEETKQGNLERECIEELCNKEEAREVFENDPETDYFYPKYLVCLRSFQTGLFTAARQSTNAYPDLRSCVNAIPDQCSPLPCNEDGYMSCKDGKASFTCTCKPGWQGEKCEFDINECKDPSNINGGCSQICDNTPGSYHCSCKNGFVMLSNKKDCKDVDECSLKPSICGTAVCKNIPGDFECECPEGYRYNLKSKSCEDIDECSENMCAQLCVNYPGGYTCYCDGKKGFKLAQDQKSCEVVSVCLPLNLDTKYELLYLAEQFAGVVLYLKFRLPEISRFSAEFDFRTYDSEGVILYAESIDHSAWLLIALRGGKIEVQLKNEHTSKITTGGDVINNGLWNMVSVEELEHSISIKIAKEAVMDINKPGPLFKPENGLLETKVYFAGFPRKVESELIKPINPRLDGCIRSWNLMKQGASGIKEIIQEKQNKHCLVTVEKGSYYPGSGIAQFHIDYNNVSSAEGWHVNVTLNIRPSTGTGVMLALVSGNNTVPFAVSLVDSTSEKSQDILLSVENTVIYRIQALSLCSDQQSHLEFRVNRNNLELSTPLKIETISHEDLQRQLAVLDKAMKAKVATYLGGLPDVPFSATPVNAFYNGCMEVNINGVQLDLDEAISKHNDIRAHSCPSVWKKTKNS
Put plainly: LANCE competition. The gist of the method: (§1)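 A homogeneous time-resolved FRET (LANCE) competition format paired europium-labelled Protein S and ULight-labelled streptavidin with a biotinylated tracer peptide, against which unlabelled test peptide was titrated three-fold. With final concentrations of 10 nM Protein S, 100 nM streptavidin and 300 nM tracer in 50 µl, or 2 nM Protein S and 60 nM tracer when a Tecan F500 was used, samples stood 1 hour at room temperature. Emission was read at 665 nm with excitation at 340 nm. Non-linear regression of these signals gave the IC50.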
For orientation: Time-resolved FRET reads energy transfer from a long-lived donor to a nearby acceptor.

The target in experiment [2] is T2, human Protein S (human, UniProt P07225 42-676).
T2 construct: Called 'full length Protein S' / 'human full-length Protein S'; It was coated on plates (ELISA), Eu-labeled (LANCE) or immobilized on a chip (Biacore); also called PS; full length Protein S
T2 sequence: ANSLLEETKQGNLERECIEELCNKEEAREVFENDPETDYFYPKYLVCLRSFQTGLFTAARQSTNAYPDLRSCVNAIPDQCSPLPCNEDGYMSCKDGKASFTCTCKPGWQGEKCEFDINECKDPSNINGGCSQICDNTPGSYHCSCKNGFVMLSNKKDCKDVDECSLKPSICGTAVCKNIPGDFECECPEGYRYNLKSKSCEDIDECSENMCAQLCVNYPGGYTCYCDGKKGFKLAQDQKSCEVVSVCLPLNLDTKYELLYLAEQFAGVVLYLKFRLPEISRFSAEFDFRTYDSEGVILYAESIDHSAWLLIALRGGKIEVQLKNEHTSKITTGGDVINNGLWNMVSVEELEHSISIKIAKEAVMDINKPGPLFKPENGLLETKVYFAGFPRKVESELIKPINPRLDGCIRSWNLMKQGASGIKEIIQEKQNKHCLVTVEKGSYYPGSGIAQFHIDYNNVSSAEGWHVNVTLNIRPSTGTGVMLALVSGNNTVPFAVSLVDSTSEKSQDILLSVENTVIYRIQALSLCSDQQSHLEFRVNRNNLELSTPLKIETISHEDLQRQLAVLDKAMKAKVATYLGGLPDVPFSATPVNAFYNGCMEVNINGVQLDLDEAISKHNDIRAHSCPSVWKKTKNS
Kind of experiment: Biacore (SPR), Protein S immobilized. The gist of the method:
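Kd was derived from kon and koff, which came from fitting surface plasmon resonance sensorgrams to a Langmuir binding model. Measurements used a Biacore 3000 or Biacore T200 with 1000 RU of human full-length Protein S on a […] chip, and peptides were injected at various concentrations in HBS-buffer with 3 mM CaCl₂ and 1% DMSO.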
On the technique in general: In SPR one partner is held on a chip, and binding of the other changes the refractive index at the surface.

The target of experiment [3] is T1, human Protein S. Kind of experiment: LANCE competition. The gist of the method: as §1

Here are results for 43 molecules from US20150246947A1 (BAXALTA, published 2015).

“And” between values parts separate entries of the source, which are not always exact repeats. Equal values may be shown once. Read-outs that look alike come from different tables or passages of the source. Non-standard residues stand in square brackets, D forms with d.

As for Ac-SGHVSAGWYDYNFDHYREFT-NH2 [JBS2648], the IC50 – broadly, the midpoint of a concentration-inhibition curve – in the experiment with human Protein S [1] was 18.6 nM.

Turning to Ac-GGHVSAGWYDYNFDLYREFT-NH2 [JBS2682], in the experiment with human Protein S [1], the IC50 was 7.5 nM.

Consider Ac-TGHVSAGWYDYNFDFYREFT-NH2 [JBS2623], for which the IC50 in the experiment with human Protein S [1] is 15.1 nM.

Ac-AIYVTAGWYDYNNDTYYEFT-NH2 [JBS3283]: in the experiment with human Protein S [2], binding was characterised by a dissociation constant (Kd) of 0.4 nM, the koff (usually a measure of how fast the partners let go of each other) came out at 0.000322 s⁻¹ and the kon (commonly a measure of how fast the partners come together) stood at 735000 M⁻¹ s⁻¹. The IC50 with human Protein S [3] turned out to be 0.9 nM.

Consider Ac-TGLVSAGWYDYNFDHYIEFT-NH2 [JBS2790], for which the IC50 in the experiment with human Protein S [1] amounted to 3.4 nM.

With Ac-TGLVSAGWYDYNFDHYHEFT-NH2 [JBS2770], the IC50 with human Protein S [1] is 5.2 nM.

With Ac-TGHVSAGWYDYNFDHYRPFT-NH2 [JBS2645], the IC50 with human Protein S [1] turned out to be 9.4 nM.

Regarding Ac-TAHVSAGWYDYNFDDYREFT-NH2 [JBS2679], the IC50 with human Protein S [1] was 30 nM. This IC50 lies about 3.2-fold higher than the previous one.

In turn, Ac-LGHVSAGWYDYNFDHYREFT-NH2 [JBS2570] returned an IC50 with human Protein S [1] of 18.8 nM.

B1: JBS3321 (peptide)
peptide: Ac-EYYVSAGWYDYNTDTYYEFEC-NH2
modifications: not fully specified (residue 21)
notes: Tetramer of JBS3319 monomers with a four arm 10 kD PEG moiety
As for B1, in the experiment with human Protein S [2], the Kd (usually the free concentration of one partner at which half of the binding sites on the other are occupied at equilibrium, for simple one-to-one binding) was determined as 0.02 nM; the koff came out at 3.88e-05 s⁻¹; the kon amounted to 1.58e+06 M⁻¹ s⁻¹. Moreover, the IC50 with human Protein S [3] worked out at 0.7 nM.

In turn, Ac-TGLVSAGWYDYNMDHYREFT-NH2 [JBS2806] displayed an IC50 in the experiment with human Protein S [1] of 5.7 nM. This counts as single-digit nanomolar.

In the experiment with human Protein S [1], Ac-TGLVSAGWYDYNFDHYTEFT-NH2 [JBS2887] yielded an IC50 of 4 nM. The IC50 values of the last two molecules are within 1.5-fold of each other.

As to Ac-TGFVSAGWYDYNFDHYREFT-NH2 [JBS2612], in the experiment with human Protein S [1], the IC50 was 17 nM.

Turning to Ac-TGLVSAGWYDYNFDVYREFT-NH2 [JBS2903], in the experiment with human Protein S [1], the IC50 came to 3.1 nM.

As for Ac-EYIVTAGWYDYNKDIYYEFK-NH2 [JBS3263], in the experiment with human Protein S [2], the affinity, expressed as Kd, was 0.4 nM; the koff came out at 0.000264 s⁻¹; the kon came to 629000 M⁻¹ s⁻¹. This molecule also showed an IC50 with human Protein S [3] of 1.2 nM.

With TGLVSAGWYDYNFDHYREFTC [JBS2713], in the experiment with human Protein S [1], the IC50 was found to be 20.1 nM.

Turning to Ac-GAHVSAGWYDYNFDLYREFT-NH2 [JBS2683], in the experiment with human Protein S [1], the IC50 is 5.6 nM.

Turning to Ac-GGHVSAGWYDYNKDHYREFT-NH2 [JBS2676], in the experiment with human Protein S [1], the IC50 stood at 11.6 nM.

In the experiment with human Protein S [1], Ac-KGHVSAGWYDYNFDHYREFT-NH2 [JBS2590] displayed an IC50 of 11.4 nM. The IC50 values of the last two molecules are within 1.5-fold of each other.

As for Ac-TGLVSAGWYNYNFDHYREFT-NH2 [JBS2823], the IC50 with human Protein S [1] worked out at 13.5 nM.

The molecule Ac-GGHVSAGWYDYNADHYREFT-NH2 [JBS2684] returned an IC50 in the experiment with human Protein S [1] of 12.5 nM. This IC50 and that of the molecule before are within 1.5-fold of each other.

B2: JBS2734 (peptide)
chain: Ac-TGLVSAGWYDYN[dA]DHYREFT-NH2
SMILES: CC(=O)N[C@H](C(=O)NCC(=O)N[C@@H](CC(C)C)C(=O)N[C@H](C(=O)N[C@@H](CO)C(=O)N[C@@H](C)C(=O)NCC(=O)N[C@@H](Cc1c[nH]c2ccccc12)C(=O)N[C@@H](Cc1ccc(O)cc1)C(=O)N[C@@H](CC(=O)O)C(=O)N[C@@H](Cc1ccc(O)cc1)C(=O)N[C@@H](CC(N)=O)C(=O)N[C@H](C)C(=O)N[C@@H](CC(=O)O)C(=O)N[C@@H](Cc1c[nH]cn1)C(=O)N[C@@H](Cc1ccc(O)cc1)C(=O)N[C@@H](CCCNC(=N)N)C(=O)N[C@@H](CCC(=O)O)C(=O)N[C@@H](Cc1ccccc1)C(=O)N[C@H](C(N)=O)[C@@H](C)O)C(C)C)[C@@H](C)O
As for B2, in the experiment with human Protein S [1], the IC50 came to 792 nM.

With Ac-TGLVSAGWYDYNFDQYREFT-NH2 [JBS2847], the IC50 in the experiment with human Protein S [1] was found to be 5.4 nM.

As to Ac-TGHVSAGWYDYNFDHYRE-NH2 [JBS2678], the IC50 with human Protein S [1] is 1810 nM.

The molecule Ac-TGLVSAGWYDYNNDHYREFT-NH2 [JBS2825] displayed an IC50 with human Protein S [1] of 4.4 nM.

For Ac-TAHVSAGWYDYNFDLYREFT-NH2 [JBS2680], the IC50 with human Protein S [1] was found to be 6 nM. The IC50 values of the last two molecules are within 1.5-fold of each other.

For Ac-MGLVSAGWYDYNFDHYREFT-NH2 [JBS2794], the IC50 with human Protein S [1] was 4 nM and 5.6 nM.

For the molecule Ac-TGLVSAGWYDYNFDEYREFT-NH2 [JBS2750], the IC50 with human Protein S [1] is 3.6 nM.

Consider Ac-TGLVSAGWYDYNFDIYREFT-NH2 [JBS2788], for which, in the experiment with human Protein S [1], the IC50 turned out to be 2.2 nM.

Consider Ac-TGHVSAGWYDYNSDHYREFT-NH2 [JBS2659], for which, in the experiment with human Protein S [1], the IC50 came out at 16.4 nM.

On to Ac-TSHVSAGWYDYNFDHYREFT-NH2 [JBS2649], for which the IC50 with human Protein S [1] was 31.8 nM.

In the experiment with human Protein S [1], Ac-TFHVSAGWYDYNFDHYREFT-NH2 [JBS2611] gave an IC50 of 12.5 nM.

Ac-GAHVSAGWYDYNFDHYREFT-NH2 [JBS2681]: the IC50 with human Protein S [1] was 18.7 nM. This IC50 and that of the molecule before are within 1.5-fold of each other.

In the experiment with human Protein S [1], Ac-TGLVSAGWYDNNFDHYREFT-NH2 [JBS2845] came in with an IC50 of 8.4 nM.

Ac-PGHVSAGWYDYNFDHYREFT-NH2 [JBS2628] gave a concentration for half-maximal inhibition (IC50) with human Protein S [1] of 27 nM. Against the preceding molecule, the IC50 is about 3.2-fold higher.

As to Ac-TGLVSAGWYDYNFDHYMEFT-NH2 [JBS2810], the IC50 with human Protein S [1] was 4.4 nM and 5.5 nM.

In the experiment with human Protein S [1], Ac-FGHVSAGWYDYNFDHYREFT-NH2 [JBS2610] came in with an IC50 of 15.5 nM.

Ac-TGLVSAGWYDYNFDHYVEFT-NH2 [JBS2905]: in the experiment with human Protein S [1], the IC50 came to 5.9 nM. This IC50 is about 2.6-fold lower than that of the molecule before.

Consider Ac-EGYVSAGWYDYNTDTYYEFE-NH2 [JBS3222], for which, in the experiment with human Protein S [1], the IC50 worked out at 1.5 nM.

On to Ac-TGLVSAGWYDYNFDHYWEFT-NH2 [JBS2924], for which the IC50 with human Protein S [1] was 3.6 nM.

Ac-TGSVSAGWYDYNFDHYREFT-NH2 [JBS2650] returned an IC50 with human Protein S [1] of 25.1 nM. Against the preceding molecule, the IC50 is about 7-fold higher.

In the case of Ac-TGHVSAGWYDYNFDHYSEFT-NH2 [JBS2663], the IC50 with human Protein S [1] is 28.4 nM.

As to Ac-TGLVSAGWYDYNFDHYEEFT-NH2 [JBS2752], in the experiment with human Protein S [1], the IC50 amounted to 6.8 nM.
